Patent US10517925B2, “Composition comprising KA11 polypeptide or gene encoding the same for inhibiting angiogenesis, and use thereof” (SEOUL NATIONAL UNIVERSITY R & DB FOUNDATION, priority 2015, dated 2019)
Entries after “also recorded” stand apart in the source; their conditions may differ.

What was measured:
[1] = tested on: KAI1 expression in 10T1/2; experiment: blocking of the cytokine-induced decrease in KAI1 expression of 10T1/2 by inhibitor pre-treatment; assay type: cell-based, mouse; details: 10T1/2, 50 μM methylation inhibitor, then cytokine (VEGF-A, bFGF, PDGF-bb)
Procedure: Before 10T1/2 was treated with 40 ng/ml of a cytokine (VEGF-A, bFGF or PDGF-bb) selected in Example 8-1, a cytokine receptor inhibitor was treated beforehand. To this end, VEGF-A- and PDGF-bb-treated groups were treated with a tyrosine kinase inhibitor named SU11248, and a bFGF-treated group was pre-treated with a tyrosine kinase inhibitor named PD173074 for 2 hours, treated with 40 ng/ml of each cytokine (VEGF-A, bFGF, and PDGF-bb) as an angiogenic factor for 24 hours, and then harvested to confirm KAI1 expression through RT-qPCR and Western blotting, and the result is shown in FIGS. 29A and 29B.
To confirm signaling of the decrease in KAI1 expression in 10T1/2 by a cytokine, RT-qPCR and Western blotting were used to confirm whether the decrease in KAI1 expression in 10T1/2 by a cytokine was blocked by treating 10T1/2 with a signal molecule inhibitor (a Src, Pkc, TGF-β, MAPK, AKT, p53. or JAK inhibitor) before cytokine stimulation, and the result is shown in FIGS. 35 to 38.
10T1/2 was treated with 50 μM of a methylation inhibitor (5-azacytidine), and then treated with each cytokine (VEGF-A, bFGF, and PDGF-bb), which is an angiogenic factor, to confirm KAI1 expression, and the result is shown in FIG. 40.

[2] = tested on: KAI1 expression in 10T1/2; experiment: KAI1 expression of 10T1/2 treated with angiogenic cytokines (RT-qPCR, Western blotting, immunostaining); assay type: cell-based, mouse; details: for KAI1 expression: 10T1/2, 40 ng/ml cytokine, until 72 hours; for KAI1 expression after removal of the stimulant: 10T1/2 stimulated 24 hours, then fresh culture media
Procedure: That is, the change in KAI1 expression according to time (24 hrs, 48 hrs or 72 hrs) after 10T1/2 was treated with 40 ng/ml of each cytokine (VEGF-A, bFGF or PDGF-bb) was identified through RT-qPCR, Western blotting and immunostaining, and thus the results are shown in FIGS. 31A and 31B and 32. Here, each group of 10T1/2 was treated with 40 ng/ml of each cytokine (VEGF-A, bFGF, and PDGF-bb) as an angiogenic factor and cultured in RPMI 1640 HEPES supplemented with 10% (v/v) fetal bovine serum (FBS) and 1% antibiotics-antimycotics for up to 72 hours without change in a culture medium.
After FGF or PDGF stimulation was given to 10T1/2, 24 hours later, the media was changed with fresh culture media (general culture media), and then RT-qPCR and Western blotting were conducted to confirm whether there was a change in the decreased expression of KAI1. […] From the result, it can be seen that the decrease in KAI1 expression was reversible.

[3] = tested on: MS-1 / 10T1/2 hybrid spheroid; experiment: EC-pericyte hybrid spheroid sprouting in collagen; assay type: cell-based, mouse; details: culture media supplemented with KAI1 protein
From the text: Here, a mouse endothelial cell line (MS-1) was used as ECs and 10T1/2 was used as pericytes. In addition, KAI1 was overexpressed using an adenovirus in pericytes. In the manufacture of the spheroid, a ratio of the number of each type of cell (EC:pericyte) was 2:1, and the total cell number was fixed at 3×10^3. As culture media used to grow the spheroids, 10% FBS and 1% antibiotics-antimycotics-containing Dulbecco's modified eagle medium (DMEM) was used. In addition, effective EC sprouting was induced by a treatment of 100 ng/ml of recombinant human VEGF.
Afterwards, to verify an anticancer effect of a KAI1 protein treatment, B16 and an EC-pericyte hybrid spheroid were manufactured and embedded in collagen, and then a degree of vessel formation was observed by time. Here, a mouse endothelial cell line (MS-1) was used as ECs, and 10T1/2 was used as pericytes. In the manufacture of the spheroid, a ratio of the number of each type of cell (EC:pericyte) was 2:1, and the total cell number was fixed at 3×10^3. As culture media used to grow the spheroids, Dulbecco's modified eagle medium (DMEM) supplemented with 10% FBS and 1% antibiotics-antimycotics and a KAI1 protein was used. As a result, as shown in FIGS. 50A and 50B and 51, it can be confirmed that the sprouting of the KAI1 protein was inhibited in the spheroids. Therefore, an anticancer effect of the KAI1 protein was able to be expected.

mouse cornea = mouse cornea micropocket assay; assay type: in vivo; details: pellet containing both cytokine and protein, 10 days, similar to vehicle
Procedure: Based on the above-described in vitro experiment, a mouse cornea micropocket assay was performed to confirm whether angiogenesis was actually regulated by in vivo regulation of the KAI1 expression of pericytes. After a pocket formed by mixing cytokine, sucralfate and poly-hema (from which the cytokine was slowly secreted little by little) was manufactured and added to the mouse cornea, a degree of angiogenesis per experimental group was examined for 10 days. As a result, as shown in FIGS. 47A and 47B, it can be confirmed that, compared to a vehicle, angiogenesis in the mouse cornea injected with a pellet containing only a cytokine was added was much increased.

[4] = tested on: prostate cancer cell line (PC-3); experiment: PC-3 matrigel subcutaneous tumor mass formation in mice; assay type: in vivo, mouse; details: PC-3 with matrigel subcutaneously in mice, compared to vehicle
From the text: More specifically, a prostate cancer cell line (PC-3) was mixed with a matrigel and subcutaneously injected into mice, and then tumor mass formation was observed and compared per experimental group. […] In addition, it can be confirmed that tumor mass was smaller in a group injected with a supernatant of KAI1 O/E 10T1/2 than in a group injected with a supernatant of mock 10T1/2. After the tumor mass obtained in the above-mentioned experiment was fixed with PFA, the cross-section was formed into sections, and a degree of angiogenesis per experimental group was determined by IF. Antibodies used herein were BS-1 Lectin (EC marker, 488 fluorescence), α-SMA (Pericyte marker, 555 fluorescence), and DAPI (nucleus marker, 405 fluorescence).

retinal angiogenesis = experiment: retinal disease model mouse, injection into the orbit; assay type: in vivo; details: injected into the orbit of model mouse, immunofluorescence, compared with control (not treated)
Procedure: Retinal diseases such as diabetic retinopathy and central serous (chorio)retinopathy are diseases of the loss of eyesight as vessel permeability is increased by a VEGF, body fluids gather around the retina (macular edema), and pathological angiogenesis occur.
A KAI1 protein was injected into the orbit of a model mouse with such a disease, and a degree of angiogenesis inhibition was compared with a control (not treated).

Molecule: Nc1ncn([C@@H]2O[C@H](CO)[C@@H](O)[C@H]2O)c(=O)n1 [5-azacytidine]
- KAI1 gene expression [1]: not decreased

Molecule: bFGF: typical angiogenic factor (cytokine)
- KAI1 expression [2]: continuously decreased
- KAI1 expression after removal of the stimulant [2]: recovered again

B1: KAI1 protein: KAI1(CD82) polypeptide, human-derived amino acid sequence of SEQ ID NO: 1 or mouse-derived SEQ ID NO: 2 (protein)
chain: MGAGCVKVTKYFLFLFNLLFFILGAVILGFGVWILADKNSFISVLQTSSSSLQVGAYVFIGVGAITIVMGFLGCIGAVNEVRCLLGLYFVFLLLILIAQVTVGVLFYFNADKLKKEMGNTVMDIIRNYTANATSSREEAWDYVQAQVKCCGWVSHYNWTENEELMGFTKTTYPCSCEKIKEEDNQLIVKKGFCEADNSTVSENNPEDWPVNTEGCMEKAQAWLQENFGILLGVCAGVAVIELLGLFLSICLCRYIHSEDYSKVPKY
- sprouting of B16 and EC-pericyte hybrid spheroids [3]: inhibited
- angiogenesis in the mouse cornea (mouse cornea): no angiogenesis
- tumor mass [4]: smaller
- angiogenesis in the presence of VEGF (retinal angiogenesis): angiogenesis was inhibited; also recorded: inhibition of angiogenesis

B2: PDGF-bb: typical angiogenic factor (cytokine) (protein, UniProt P01127 82-190, looked up)
Platelet-derived growth …: SLGSLTIAEPAMIAECKTRTEVFEISRRLIDRTNANFLVWPPCVEVQRCSGCCNNRNVQCRPTQVQLRPVQVRKIEIVRKKPIFKKATVTLEDHLACKCETVAAARPVT
modifications: homodimer
- KAI1 expression [2]: continuously decreased
- KAI1 expression after removal of the stimulant [2]: recovered again
